{
  "source": "paper PMC10177866",
  "about": "“Computational Insights and In Silico Characterization of a Novel Mini-Lipoxygenase from Nostoc Sphaeroides and Its Application in the Quality Improvement of Steamed Bread” (International Journal of Molecular Sciences, 2023)",
  "molecules": {"B1": {"name": "NsLOX (Nostoc sphaeroides CCNUC1) (protein)", "chain": "MTVSEQRKANQEKFIYASNIPTFDVTKPLPPTVLPSIKWQYNFKSSLYGLGGVRQILTAPNLKSGGTELNTISYLIPNLTRLRPDKFSDEFFVERRLNGFSPGKLKRVENQPWQYVIRYDFSGVSVDPNGILPQFIEARFCLDGQQLHVHSIEFILHGETKIQNLSPSDQDWEWAKKLFRSAEFVQHETVAHLGGTHLNIDQYAMAYYRNVVNNPIIELLEPHFEGLLSINQQGLSELVGSETKEGVVPQLTALNYQDTQKILVEGLQTLTYRNWSPRSHTLPDYVANNHYDRAAIAFWQIINKYVKDFFDQNQAGIQQYWSEIEAMSKDLAAHSILKPELGTLDIKTLQDLRQMCVYVIYISTFQHSWVNHKQYEDGGDIEYATLGMWKENDAMTAARNGRQLSTTLNLTSVRHNPIMGVDLPVANKLKEALWENREQIEPGIAIDTILMSISI", "notes": "full length, 455 residues (52 kDa) plus 2 kDa His tag from pET-28a(+) NdeI/XhoI, tag kept; codon-optimised synthetic gene; E. coli BL21(DE3); Ni-NTA; about 54 kDa; C-terminal Ile455; no N-terminal PLAT domain"}},
  "key": {"NsLOX": {"biological_target": "T1, NsLOX (Nostoc sphaeroides, UniProt A0A5P8W1C8)", "T1 construct": "gene GXM_03308; full length, 455 residues (52 kDa) plus 2 kDa His tag from pET-28a(+) NdeI/XhoI, tag kept; codon-optimised synthetic gene; E. coli BL21(DE3); Ni-NTA; about 54 kDa; C-terminal Ile455; no N-terminal PLAT domain", "T1 sequence (A0A5P8W1C8 1-455)": "B1 chain", "experiment": "absorbance at […] nm, Lineweaver-Burk", "type": "biochemical", "conditions": "optimum assay conditions: 20 mM Tris-HCl pH 8.0, 15 °C, substrate 20-100 μM"}, "purified protein": {"substrate": "CCCCC/C=C\\C/C=C\\C/C=C\\C/C=C\\CCCC(=O)O", "experiment": "purified protein", "type": "biochemical, Nostoc sphaeroides", "conditions": "optimum assay conditions: 20 mM Tris-HCl pH 8.0, 15 °C, substrate 20-100 μM"}},
  "data": [
    {"molecule": "CCCCC/C=C\\C/C=C\\CCCCCCCC(=O)O", "note": "[LA, Linoleic acid]", "values": [
      {"measurement": "Km", "setting": "NsLOX", "result": "19.5 ± 1.24", "unit": "µM"}
    ]},
    {"molecule": "CC/C=C\\C/C=C\\C/C=C\\CCCCCCCC(=O)O", "note": "[ALA, α-Linolenic acid]", "values": [
      {"measurement": "Km", "setting": "NsLOX; Km above tested substrate range", "result": "151 ± 6.39", "unit": "µM"}
    ]},
    {"molecule": "B1", "values": [
      {"measurement": "Km", "setting": "purified protein", "result": "571.22 ± 26.88", "unit": "µM"},
      {"measurement": "Vmax", "setting": "purified protein", "result": 30.6, "unit": "µM/min"},
      {"measurement": "kcat", "setting": "purified protein", "result": "7300 ± 145", "unit": "s⁻¹"},
      {"measurement": "kcat/Km", "setting": "purified protein", "result": "1.28e+07", "unit": "M⁻¹ s⁻¹"}
    ]}
  ]
}
